# Measurements as given in IntAct's records for PubMed 11423549.
# B1: Zyxin (Homo sapiens), Q15942 (parent)
# chain: MAAPRPSPAISVSVSAPAFYAPQKKFGPVVAPKPKVNPFRPGDSEPPPAPGAQRAQMGRVGEIPPPPPEDFPLPPPPLAGDGDDAEGALGGAFPPPPPPIEESFPPAPLEEEIFPSPPPPPEEEGGPEAPIPPPPQPREKVSSIDLEIDSLSSLLDDMTKNDPFKARVSSGYVPPPVATPFSSKSSTKPAAGGTAPLPPWKSPSSSQPLPQVPAPAQSQTQFHVQPQPQPKPQVQLHVQSQTQPVSLANTQPRGPPASSPAPAPKFSPVTPKFTPVASKFSPGAPGGSGSQPNQKLGHPEALSAGTGSPQPPSFTYAQQREKPRVQEKQHPVPPPAQNQNQVRSPGAPGPLTLKEVEELEQLTQQLMQDMEHPQRQNVAVNELCGRCHQPLARAQPAVRALGQLFHIACFTCHQCAQQLQGQQFYSLEGAPYCEGCYTDTLEKCNTCGEPITDRMLRATGKAYHPHCFTCVVCARPLEGTSFIVDQANRPHCVPDYHKQYAPRCSVCSEPIMPEPGRDETVRVVALDKNFHMKCYKCEDCGKPLSIEADDNGCFPLDGHVLCRKCHTARAQT
# Variants of: B1
# Conditions: with actn1_human ACTN1, P12814
# Chain of actn1_human ACTN1, P12814 (P12814 whole entry): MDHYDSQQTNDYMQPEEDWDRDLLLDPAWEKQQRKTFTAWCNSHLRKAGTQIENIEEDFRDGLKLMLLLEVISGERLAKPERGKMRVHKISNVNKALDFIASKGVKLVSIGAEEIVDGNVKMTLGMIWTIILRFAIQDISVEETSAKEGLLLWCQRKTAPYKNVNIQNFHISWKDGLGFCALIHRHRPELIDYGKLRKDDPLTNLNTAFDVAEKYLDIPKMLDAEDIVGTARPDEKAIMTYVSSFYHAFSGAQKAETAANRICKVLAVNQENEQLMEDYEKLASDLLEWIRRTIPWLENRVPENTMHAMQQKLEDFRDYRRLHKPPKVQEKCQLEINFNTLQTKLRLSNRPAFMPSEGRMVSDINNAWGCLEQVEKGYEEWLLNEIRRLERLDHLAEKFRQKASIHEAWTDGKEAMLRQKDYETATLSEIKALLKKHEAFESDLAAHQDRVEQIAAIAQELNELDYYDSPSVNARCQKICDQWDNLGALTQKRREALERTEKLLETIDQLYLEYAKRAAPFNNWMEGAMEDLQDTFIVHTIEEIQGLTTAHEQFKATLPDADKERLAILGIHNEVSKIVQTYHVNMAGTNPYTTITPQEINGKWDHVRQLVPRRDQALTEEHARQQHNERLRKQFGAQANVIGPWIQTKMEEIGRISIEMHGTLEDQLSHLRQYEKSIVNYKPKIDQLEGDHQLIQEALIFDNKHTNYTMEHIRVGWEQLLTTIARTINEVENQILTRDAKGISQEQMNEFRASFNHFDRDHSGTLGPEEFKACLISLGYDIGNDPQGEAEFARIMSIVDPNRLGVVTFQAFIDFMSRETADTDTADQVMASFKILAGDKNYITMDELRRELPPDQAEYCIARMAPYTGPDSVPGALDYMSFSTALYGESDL
row,Variant,effect of a mutation on the interaction
1,MAAPRPSPAISVSVSAPAFYAPQKKSGPVVAPKPKVNPFRPGDSEPPPAPGAQRAQMGRVGEIPPPPPEDFPLPPPPLAGDGDDAEGALGGAFPPPPPPIEESFPPAPLEEEIFPSPPPPPEEEGGPEAPIPPPPQPREKVSSIDLEIDSLSSLLDDMTKNDPFKARVSSGYVPPPVATPFSSKSSTKPAAGGTAPLPPWKSPSSSQPLPQVPAPAQSQTQFHVQPQPQPKPQVQLHVQSQTQPVSLANTQPRGPPASSPAPAPKFSPVTPKFTPVASKFSPGAPGGSGSQPNQKLGHPEALSAGTGSPQPPSFTYAQQREKPRVQEKQHPVPPPAQNQNQVRSPGAPGPLTLKEVEELEQLTQQLMQDMEHPQRQNVAVNELCGRCHQPLARAQPAVRALGQLFHIACFTCHQCAQQLQGQQFYSLEGAPYCEGCYTDTLEKCNTCGEPITDRMLRATGKAYHPHCFTCVVCARPLEGTSFIVDQANRPHCVPDYHKQYAPRCSVCSEPIMPEPGRDETVRVVALDKNFHMKCYKCEDCGKPLSIEADDNGCFPLDGHVLCRKCHTARAQT [F26S],decreasing interaction
2,MAAPRPSPAISVSVSAPAFYAPQKKFGPSVAPKPKVNPFRPGDSEPPPAPGAQRAQMGRVGEIPPPPPEDFPLPPPPLAGDGDDAEGALGGAFPPPPPPIEESFPPAPLEEEIFPSPPPPPEEEGGPEAPIPPPPQPREKVSSIDLEIDSLSSLLDDMTKNDPFKARVSSGYVPPPVATPFSSKSSTKPAAGGTAPLPPWKSPSSSQPLPQVPAPAQSQTQFHVQPQPQPKPQVQLHVQSQTQPVSLANTQPRGPPASSPAPAPKFSPVTPKFTPVASKFSPGAPGGSGSQPNQKLGHPEALSAGTGSPQPPSFTYAQQREKPRVQEKQHPVPPPAQNQNQVRSPGAPGPLTLKEVEELEQLTQQLMQDMEHPQRQNVAVNELCGRCHQPLARAQPAVRALGQLFHIACFTCHQCAQQLQGQQFYSLEGAPYCEGCYTDTLEKCNTCGEPITDRMLRATGKAYHPHCFTCVVCARPLEGTSFIVDQANRPHCVPDYHKQYAPRCSVCSEPIMPEPGRDETVRVVALDKNFHMKCYKCEDCGKPLSIEADDNGCFPLDGHVLCRKCHTARAQT [V29S],decreasing interaction
3,MAAPRPSPAISVSVSAPAFYAPQKKFGPVVSPKPKVNPFRPGDSEPPPAPGAQRAQMGRVGEIPPPPPEDFPLPPPPLAGDGDDAEGALGGAFPPPPPPIEESFPPAPLEEEIFPSPPPPPEEEGGPEAPIPPPPQPREKVSSIDLEIDSLSSLLDDMTKNDPFKARVSSGYVPPPVATPFSSKSSTKPAAGGTAPLPPWKSPSSSQPLPQVPAPAQSQTQFHVQPQPQPKPQVQLHVQSQTQPVSLANTQPRGPPASSPAPAPKFSPVTPKFTPVASKFSPGAPGGSGSQPNQKLGHPEALSAGTGSPQPPSFTYAQQREKPRVQEKQHPVPPPAQNQNQVRSPGAPGPLTLKEVEELEQLTQQLMQDMEHPQRQNVAVNELCGRCHQPLARAQPAVRALGQLFHIACFTCHQCAQQLQGQQFYSLEGAPYCEGCYTDTLEKCNTCGEPITDRMLRATGKAYHPHCFTCVVCARPLEGTSFIVDQANRPHCVPDYHKQYAPRCSVCSEPIMPEPGRDETVRVVALDKNFHMKCYKCEDCGKPLSIEADDNGCFPLDGHVLCRKCHTARAQT [A31S],decreasing interaction
4,MAAPRPSPAISVSVSAPAFYAPQKKFGPVVAPKPKVNPSRPGDSEPPPAPGAQRAQMGRVGEIPPPPPEDFPLPPPPLAGDGDDAEGALGGAFPPPPPPIEESFPPAPLEEEIFPSPPPPPEEEGGPEAPIPPPPQPREKVSSIDLEIDSLSSLLDDMTKNDPFKARVSSGYVPPPVATPFSSKSSTKPAAGGTAPLPPWKSPSSSQPLPQVPAPAQSQTQFHVQPQPQPKPQVQLHVQSQTQPVSLANTQPRGPPASSPAPAPKFSPVTPKFTPVASKFSPGAPGGSGSQPNQKLGHPEALSAGTGSPQPPSFTYAQQREKPRVQEKQHPVPPPAQNQNQVRSPGAPGPLTLKEVEELEQLTQQLMQDMEHPQRQNVAVNELCGRCHQPLARAQPAVRALGQLFHIACFTCHQCAQQLQGQQFYSLEGAPYCEGCYTDTLEKCNTCGEPITDRMLRATGKAYHPHCFTCVVCARPLEGTSFIVDQANRPHCVPDYHKQYAPRCSVCSEPIMPEPGRDETVRVVALDKNFHMKCYKCEDCGKPLSIEADDNGCFPLDGHVLCRKCHTARAQT [F39S],increasing interaction
